Assay results: the Human Domainome abundance scans (Beltran et al. 2025)
± gives the uncertainty stated by the source.

B1: Zinc finger homeobox protein 3, residues 2147 to 2202; numbered along this chain, Q15911 (parent)
chain: RPRTRITDDQLRVLRQYFDINNSPSEEQIKEMADKSGLPQKVIKHWFRNTLFKERQ

Variants of: B1
Test: abundance fitness (aPCA) (normalised: wild type 0, dead -1); higher = more abundant; growth selection in yeast, the domain comes from the species named
Settings: Homo sapiens

Row | Variant | abundance fitness
1 | RPRKRITDDQLRVLRQYFDINNSPSEEQIKEMADKSGLPQKVIKHWFRNTLFKERQ [T4K] | -0.16 ± 0.12
2 | RPRTRITDDQLRVLRQYFDINNSPSEEQIKEMADRSGLPQKVIKHWFRNTLFKERQ [K35R] | -0.175 ± 0.075
3 | RPRTRITDDQLRVLRQYFDINNSPSEEQIKEMADSSGLPQKVIKHWFRNTLFKERQ [K35S] | -0.222 ± 0.08
4 | RPRTRITDDQLRVLRQYFDINNSPSEEQIKEMADKSGLPQKVGKHWFRNTLFKERQ [I43G] | -1 ± 0.088
5 | RPRTRITYDQLRVLRQYFDINNSPSEEQIKEMADKSGLPQKVIKHWFRNTLFKERQ [D8Y] | -0.215 ± 0.098
6 | RPRTRITVDQLRVLRQYFDINNSPSEEQIKEMADKSGLPQKVIKHWFRNTLFKERQ [D8V] | -0.05 ± 0.065
7 | RPRTRITHDQLRVLRQYFDINNSPSEEQIKEMADKSGLPQKVIKHWFRNTLFKERQ [D8H] | 0.026 ± 0.13
8 | RPRTRITDDQLRVLRQYADINNSPSEEQIKEMADKSGLPQKVIKHWFRNTLFKERQ [F18A] | -0.187 ± 0.073
9 | RPRTRITDDQLRVLRQYDDINNSPSEEQIKEMADKSGLPQKVIKHWFRNTLFKERQ [F18D] | -0.419 ± 0.11
10 | RPRTRQTDDQLRVLRQYFDINNSPSEEQIKEMADKSGLPQKVIKHWFRNTLFKERQ [I6Q] | -0.529 ± 0.11
11 | RPRTRRTDDQLRVLRQYFDINNSPSEEQIKEMADKSGLPQKVIKHWFRNTLFKERQ [I6R] | -0.727 ± 0.086
12 | RPRTRITDDQLRVLRQYFDINNSPSEEQIKEMADKGGLPQKVIKHWFRNTLFKERQ [S36G] | -0.449 ± 0.08
13 | RPRTRITDDQLRVLRQYFDINNSPSEEQIKEMADKSGLPQKVIKHWFRNTQFKERQ [L51Q] | 0.044 ± 0.11
14 | RPRTRITDDQLRVLRQYFDINNSPSEEQIKEMADKSGLPQKVIKHWFRNTIFKERQ [L51I] | -0.232 ± 0.14
15 | RPRTRITDDQLRVLRQYFDINNSPSEEQIKEMADKSGLPQKVIKQWFRNTLFKERQ [H45Q] | 0.085 ± 0.1
16 | RPRTRITDDQLRVLRQYFDINNSPSEEQIKEMADKSGLPQKHIKHWFRNTLFKERQ [V42H] | -0.374 ± 0.19
17 | RPRTRITDDQLRVLRQYFDINNSPSEEQIKEMADKSGLPQKSIKHWFRNTLFKERQ [V42S] | -0.139 ± 0.09
18 | RPRTRITDDQLRVLRQYFDINNSPSEEQIKEMADKSGLPQKRIKHWFRNTLFKERQ [V42R] | -0.028 ± 0.09
19 | RPRTRITDDQLRVLRQYFDINNSPSEEQIKEMADKSGLPQKTIKHWFRNTLFKERQ [V42T] | -0.027 ± 0.13
20 | RPRTRITDDQLRVLRQYFDINNSPSEEQIKEMADKSGLPQKYIKHWFRNTLFKERQ [V42Y] | -0.18 ± 0.14
21 | RPRTRITDDQLRVLRQYFDINNSPSEEQIKEMADKSGLPQKVIKHWFTNTLFKERQ [R48T] | -0.07 ± 0.12
22 | RTRTRITDDQLRVLRQYFDINNSPSEEQIKEMADKSGLPQKVIKHWFRNTLFKERQ [P2T] | 0.279 ± 0.11
23 | RPRTFITDDQLRVLRQYFDINNSPSEEQIKEMADKSGLPQKVIKHWFRNTLFKERQ [R5F] | 0.08 ± 0.083
24 | RPRTRITDDQLRVLRQYFDINNSPSEEQIKEMADKSGLPQKVIKHWFRATLFKERQ [N49A] | -0.061 ± 0.11

Row | Variant | abundance fitness
25 | RPRTRITDDQLRVLRQYFDINNSPSEEQIKEMADKSGLPQKVIKHWFRCTLFKERQ [N49C] | 0.082 ± 0.13
26 | RPRTRITDDQLRVLRQYFDINNSPSEEQIKEMADKSGLPQKVIKHWFRETLFKERQ [N49E] | 0.153 ± 0.16
27 | RPRTRITDDQLRVLRQYFDINNSPSEEQIKEMADKSGLPQKVIKHWFRLTLFKERQ [N49L] | -0.117 ± 0.098
28 | RPRTRITDDQLRVLRQYFDINNSPSEEQIKEMAFKSGLPQKVIKHWFRNTLFKERQ [D34F] | 0.013 ± 0.18
29 | RPRTRITDDQLRVLRQYFDINNSPSEEQIKEMAKKSGLPQKVIKHWFRNTLFKERQ [D34K] | 0.02 ± 0.13
30 | RPRTRITDDQLRVLRQYFEINNSPSEEQIKEMADKSGLPQKVIKHWFRNTLFKERQ [D19E] | 0.022 ± 0.085
31 | RPRTRITDDQLRVLRQYFQINNSPSEEQIKEMADKSGLPQKVIKHWFRNTLFKERQ [D19Q] | -0.207 ± 0.11
32 | RPRTRITDDQLRVLRQYFSINNSPSEEQIKEMADKSGLPQKVIKHWFRNTLFKERQ [D19S] | -0.015 ± 0.073
33 | RPRTRITDDQLRVLRQYFNINNSPSEEQIKEMADKSGLPQKVIKHWFRNTLFKERQ [D19N] | -0.056 ± 0.1
34 | RPRTRITDDQLRVLRQYFDINNSPSEEQIKEMADKSGLPQMVIKHWFRNTLFKERQ [K41M] | -0.011 ± 0.13
35 | RPRTRITDDQLRVLRQYFDINNSPSEEQIKEMADKSGLPQKVIKHWDRNTLFKERQ [F47D] | -0.819 ± 0.19
36 | RPRTRITDDQLRVLRQYFDINNSPSEEQIKEMADKSGLPQKVIKHWCRNTLFKERQ [F47C] | -0.169 ± 0.11
37 | RPRTRITDDQLRVLRQYFDINNSPSEEQIKEMADKSGLPQKVIKHWPRNTLFKERQ [F47P] | -0.912 ± 0.16
38 | RPRTRITDDQLRVLRQYFDINNSPSEEQIKEMADKSGLPQKVIKHWVRNTLFKERQ [F47V] | -0.17 ± 0.087
39 | RPRTRITDDQLRVLRQYFDINGSPSEEQIKEMADKSGLPQKVIKHWFRNTLFKERQ [N22G] | -0.152 ± 0.065
40 | RPRTRITDDQLRVLRQYFDINMSPSEEQIKEMADKSGLPQKVIKHWFRNTLFKERQ [N22M] | 0.038 ± 0.097
41 | RPRTRITDDQLRVLRQYFDINISPSEEQIKEMADKSGLPQKVIKHWFRNTLFKERQ [N22I] | -0.052 ± 0.14
42 | RPRTRITDDQLRVLRQYFDINNSPSEEQIKEMADKSQLPQKVIKHWFRNTLFKERQ [G37Q] | -0.245 ± 0.1
43 | RPRTRITDDQLRVLRQYFDINNSPSEEQIKEMADKSALPQKVIKHWFRNTLFKERQ [G37A] | -0.176 ± 0.11
44 | RPRTRITDDQLRVLRQYFDINNSPSEEQIKEMADKSGLPQKVIFHWFRNTLFKERQ [K44F] | -0.175 ± 0.16
45 | RPRTRITDDQLRVLRQYFDINNSPSEEQIKEMADKSGLPQKVIVHWFRNTLFKERQ [K44V] | -0.107 ± 0.084
46 | RPRTRITDDQLRVLRQYFDINNSPSEEQIKEMADKSGLPQKVIEHWFRNTLFKERQ [K44E] | -0.146 ± 0.12
47 | RPRTRITDDQLRVLRQYFDINNSPSEEQIKEMADKSGPPQKVIKHWFRNTLFKERQ [L38P] | -0.858 ± 0.13
